In patent US20240342190A1, “METHODS FOR REDUCING ISCHEMIA-REPERFUSION INJURIES” (BioMimetix JV, LLC, priority 2023, published 2024):

Assay: Experiment 8: interaction of BMX-001 with t-PA (blood clot dissolution)
Parameters: species or system rat
Conditions: rat blood clots; 1 mg/ml t-PA with or without 50 μg/ml BMX-001; 37° C. for 30 minutes
Protocol: Fresh arterial blood samples were collected from young male rats and distributed into 21 pre-weighed centrifuge tubes. After sitting at 37° C. for 3 hours, the blood clots were formed. The supernatant was removed from these tubes and then the tubes with blood clots were weighed. The weight of the blood clot was calculated (=the tube with blood clot-pre-weighed tube). Then, 1 ml saline, t-PA (1 mg/ml) or t-PA (1 mg/ml) plus BMX-001 (50 μg/ml) were added (n=7 for each group) and tubes placed in 37° C. dry incubator for 3 hours. The liquids were then removed from the tubes. The tubes with remaining blood clots were weighed again. The percentage of blood clot dissolved by t-PA was calculated.

B1: tissue plasminogen activator (protein, UniProt P00750 36-562, looked up)
Tissue-type plasminogen …: SYQVICRDEKTQMIYQQHQSWLRPVLRSNRVEYCWCNSGRAQCHSVPVKSCSEPRCFNGGTCQQALYFSDFVCQCPEGFAGKCCEIDTRATCYEDQGISYRGTWSTAESGAECTNWNSSALAQKPYSGRRPDAIRLGLGNHNYCRNPDRDSKPWCYVFKAGKYSSEFCSTPACSEGNSDCYFGNGSAYRGTHSLTESGASCLPWNSMILIGKVYTAQNPSAQALGLGKHNYCRNPDGDAKPWCHVLKNRRLTWEYCDVPSCSTCGLRQYSQPQFRIKGGLFADIASHPWQAAIFAKHRRSPGERFLCGGILISSCWILSAAHCFQERFPPHHLTVILGRTYRVVPGEEEQKFEVEKYIVHKEFDDDTYDNDIALLQLKSDSSRCAQESSVVRTVCLPPADLQLPDWTECELSGYGKHEALSPFYSERLKEAHVRLYPSSRCTSQHLLNRTVTDNMLCAGDTRSGGPQANLHDACQGDSGGPLVCLNDGRMTLVGIISWGLGCGQKDVPGVYTKVTNYLDWIRDNMRP
notes: standard thrombolytic therapy
- Percentage of blood clot dissolved: 44.77±25.77%
